Results on 8 molecules are retold here after patent US20230012273A1 (Boehringer Ingelheim, published 2023).

Test [1] addresses T1, full-length human SIRPγ E→D on Expi-CHO cells (human, UniProt Q9P1W8 29-387).
T1 construct: the entry already carries the change (PENV to PDNV)
Nature of the test: flow cytometry, Expi-CHO cells expressing full-length human SIRPγ E→D. As for the experimental part:
(§1) Expi-CHO parental cells are transduced with lentiviruses containing either full-length wild-type human SIRPγ (NP_542970.1) or full-length human SIRPγ with amino acid point mutations (Table 64) and sorted to achieve matching expression levels. These cells are blocked with donkey IgG and incubated on ice with increasing concentrations of antibodies for 60 minutes, washed and stained with AF647-conjugated donkey F(ab′)₂ anti-human IgG antibodies. Stained cells are washed, fixed, and analyzed by flow cytometry. Median fluorescent intensity is determined and used as a measure of antibody binding.
On the technique in general: Flow cytometry measures light scatter and fluorescence of single cells or particles in a stream.

Test [2] has as its target T2, full-length cynomolgus SIRPα (NP_001271679) on CHO cells, clone HC6 (cynomolgus monkey, UniProt A0A2K5VYQ9).
T2 construct: whole, on cells; also called NP_001271679 Clone HC6
T2 sequence: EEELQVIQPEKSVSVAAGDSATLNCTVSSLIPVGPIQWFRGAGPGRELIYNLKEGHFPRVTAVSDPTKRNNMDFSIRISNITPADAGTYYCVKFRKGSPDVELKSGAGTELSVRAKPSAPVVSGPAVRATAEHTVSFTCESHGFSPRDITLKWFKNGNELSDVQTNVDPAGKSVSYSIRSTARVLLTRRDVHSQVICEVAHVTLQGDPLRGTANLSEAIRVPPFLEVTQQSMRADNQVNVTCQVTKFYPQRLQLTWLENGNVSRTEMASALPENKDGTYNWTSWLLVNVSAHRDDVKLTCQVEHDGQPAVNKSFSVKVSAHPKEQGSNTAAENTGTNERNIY
The test is described as follows: flow cytometry, CHO cells. As for the experimental part:
(§2) Antibody binding to cells expressing cynomolgus (cyno) SIRPα was evaluated by flow cytometry. CHO-K1 cells expressing full-length cyno SIRPα; derived from protein sequence accession numbers (A) EGM-02252; (B) XP_015313155; or (C) NP_001271679, are blocked with donkey IgG and incubated on ice with increasing concentrations of antibodies for 60 minutes, washed and stained with AF647-conjugated donkey F(ab′)₂ anti-human IgG secondary reagent. Cells are washed, fixed, and analyzed by flow cytometry. Median fluorescent intensity is determined and used as a measure of antibody binding.

For test [3], the target named is T3, full-length cynomolgus SIRPα (EGM-02252) on CHO cells, clone H3A9 (cynomolgus monkey, UniProt A0A2K5VYQ9).
T3 construct: whole, on cells; also called EGM-02252 Clone H3A9
T3 sequence: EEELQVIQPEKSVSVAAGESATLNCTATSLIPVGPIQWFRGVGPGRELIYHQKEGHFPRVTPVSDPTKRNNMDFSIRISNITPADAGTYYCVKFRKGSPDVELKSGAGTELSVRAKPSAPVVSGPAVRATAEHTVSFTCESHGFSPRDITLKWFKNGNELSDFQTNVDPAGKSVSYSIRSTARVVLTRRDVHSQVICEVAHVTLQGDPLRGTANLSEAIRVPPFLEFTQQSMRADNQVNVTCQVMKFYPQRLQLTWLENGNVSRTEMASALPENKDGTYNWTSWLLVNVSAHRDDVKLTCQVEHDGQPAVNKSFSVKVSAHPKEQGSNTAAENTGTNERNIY
The test is described as follows: flow cytometry, CHO cells. As for the experimental part:
as §2

Test [4] deals with T4, recombinant human SIRPγ extracellular domain (ECD)/His protein (NP_061026.2) (human, UniProt Q9P1W8 29-360).
T4 construct: coated on ELISA plates; also called recombinant hSIRPγ; not shown: His-tag
The test is described as follows: ELISA, immobilised His-tagged human SIRPγ extracellular domain (average fluorescence). As for the experimental part:
A biochemical ELISA-based assay is utilized to evaluate the binding of antibodies to SIRPγ. Black, 96-well flat-bottom immunoassay plates are coated with recombinant human SIRPγ extracellular domain (ECD)/His protein (NP_061026.2) diluted in DPBS and incubated overnight at 4° C. […] Plates are washed and serially titrated antibodies are added to respective wells for an incubation of about 1-2 h at RT. After the incubation, the plates are washed and HRPO-conjugated mouse anti-human IgG secondary reagent (Jackson Immuno Research) is added to each well and incubated for about 1-2 hours. Following the final plate washing, Amplex™ red substrate is added and incubated at RT in the dark for 15-30 minutes. Fluorescence is detected (λEx/λEm=530/590 nm) using EnVision Multilabel Plate Reader (Perkin Elmer). Average fluorescence is plotted for measuring the antibody binding.
(ELISA stands for enzyme-linked immunosorbent assay.)

For test [5], the target named is T5, full-length human SIRPαV1 (NP_542970.1) on cells (human, UniProt P78324 31-504).
T5 construct: one molecule for CHO-K1 and Expi-CHO transfectants (NP_542970.1) and for endogenous V1 on U-937 cells and on CD14+ monocytes of V1/V1 donors; also called CHO-hSIRPαV1; αV1 WT
Nature of the test: flow cytometry, competition with CD47 tetramer, CHO-K1 cells. As for the experimental part: (§3) Cells are washed, fixed, and analyzed by flow cytometry. Median fluorescent intensity is determined and used as a measure of CD47 binding.

Test [6] deals with T6, full-length human SIRPαV2 (CAA71403.1) on cells (human, UniProt P78324 31-504).
T6 construct: one molecule for CHO-K1 and Expi-CHO transfectants (CAA71403.1) and for endogenous V2 on THP-1 cells and on CD14+ monocytes of V2/V2 donors; also called CHO-hSIRPαV2; αV2 WT
The test is described as above. As for the experimental part:
as §3

For test [7], the target named is T6, full-length human SIRPαV2 (CAA71403.1) …. The test is described as follows: flow cytometry, THP-1 cells (endogenous V2). As for the experimental part:
Antibody binding to human monocytic cell lines homozygous for the V1-allele (U-937) or the V2-allele (THP-1) of SIRPα is assessed. U-937 or THP-1 cells are blocked with donkey IgG and incubated on ice with increasing concentrations of antibodies for 60 minutes, washed and stained with AF647-conjugated donkey F(ab′)₂ anti-human IgG secondary reagent. Cells are washed, fixed, and analyzed by flow cytometry. Median fluorescent intensity is determined and used as a measure of antibody binding.

Test [8] addresses T7, full-length human SIRPαV1 DD→EN on Expi-CHO cells (human, UniProt P78324 31-504).
T7 construct: the entry already carries the change (PDDV to PENV)
Nature of the test: flow cytometry, Expi-CHO cells. As for the experimental part: as §1, with “wild-type human SIRPαV1 allele (NP_542970.1) or” for “wild-type human SIRPγ (NP_542970.1) or”, “full-length human SIRPαV1 with amino” for “full-length human SIRPγ with amino”, “mutations (Table 56) and sorted” for “mutations (Table 64) and sorted”

Positions count from the first letter of the chain named.

B1: Antibody A (antibody, human IgG1, kappa, L234A L235A)
heavy: not shown
light: DIQMTQSPSSLSASVGDRVTITCRASQDINNYLAWFQQKPGKAPKSLIYTASSLHSGVPSKFSGSGSGTDFTLTISSLQPEDFATYYCQQYVSYPYTFGQGTKLEIKRTVAAPSVFIFPPSDEQLKSGTASVVCLLNNFYPREAKVQWKVDNALQSGNSQESVTEQDSKDSTYSLSSTLTLSKADYEKHKVYACEVTHQGLSSPVTKSFNRGEC
In general, EC50 refers to the concentration giving half of the maximal effect. A high value points to a less potent agent. As for B1, the binding result in test [1] and in test [4] was “no binding (tested: about 67 nM)” each time. Moreover, the results for the EC50 in test [2] and in test [3] were 4500 pM and 1900 pM, respectively.

B2: Antibody A10 (antibody, human IgG1, kappa, L234A L235A)
heavy: not shown
light: B1 light
Turning to B2, the binding result in test [1] is listed as “no binding (tested: about 67 nM)”. Moreover, the EC50 in test [2] was found to be 3700 pM; in test [3], 1500 pM.

B3: Antibody C (antibody, human IgG1, kappa, L234A L235A, V domains shown)
VH: EVQLVESGGGLVQPGGSLRLSCAASGFTFSSYDMHWVRQATGKGLEWVSVIGIAGDTYYPGSVKGRFTISRENAKNSLYLQMNSLRVGDTAVYYCARGGSWDDAFDIWGQGTMVTVSS
VL: DIQMTQSPSSLSASIGDKVTITCRASQDINNYLAWFQQKPGKAPKSLIYTASSLQSGVPSKFSGSGSGTDFTLTISSLQPEDFATYYCQQYVSYPYTFGQGTKLEIKR
A word on the IC50: it is the concentration that gives 50% inhibition. High values mean a need for much substance, low ones inhibition by little substance. In the case of B3, the results for the IC50 in test [5] and in test [6] were 700 pM and 300 pM, respectively. Also, the EC50 in test [7] amounted to 300 pM; in test [8], 1100 pM.

B4: Anti-SIRPα antibody KWAR23 (antibody, V domains shown)
VH: EVQLQQSGAELVKPGASVKLSCTASGFNIKDYYIHWVQQRTEQGLEWIGRIDPEDGETKYAPKFQDKATITADTSSNTAYLHLSSLTSEDTAVYYCARWGAYWGQGTLVTVSS
VL: QIVLTQSPAIMSASPGEKVTLTCSASSSVSSSYLYWYQQKPGSSPKLWIYSTSNLASGVPARFSGSGSGTSYSLTISSMEAEDAASYFCHQWSSYPRTFGAGTKLELK
With B4, the IC50 in test [5] is 900 pM; in test [6], 600 pM. The EC50 was determined as 2000 pM in test [2], 900 pM in test [3], 200 pM in test [7] and 200 pM in test [8].

B5: Antibody E (antibody, human IgG1, kappa, L234A L235A)
heavy: not shown
light: DIVMTQSPLSLPVTPGEPASISCKSSQSLLYSNGYNYLDWYLQRPGQSPQLLIYLGSNRASGVPDRFSGSGSGTDFTLKISRVEAEDVGVFYCMQALQTPLTFGGGTKVEIKRTVAAPSVFIFPPSDEQLKSGTASVVCLLNNFYPREAKVQWKVDNALQSGNSQESVTEQDSKDSTYSLSSTLTLSKADYEKHKVYACEVTHQGLSSPVTKSFNRGEC
As to B5, the binding result in test [1] and in test [4] was “no binding (tested: about 67 nM)” each time. In addition, the IC50 in test [5] amounted to 700 pM. Also, the EC50 in test [7] and in test [8] was 400 pM in each case.

B6: Antibody E22 (antibody, human IgG1, kappa, L234A L235A, V domains shown)
VH: QVQLQESGPGLVKPSETLSLTCTVSGGSIRDYYWSWIRQPPGKGLEWIGFIYYNGRTFYQSSLKSRVTISLDTSKNQFSLKMTSVTAADTAVYYCARVRAYSGIGLDGTDVWGQGTTVTVSS
VL: DIVMTQSPLSLPVTPGEPASISCRSSQSLLYSTGYTYLDWYLQRPGQSPQLLIYGGSSRASGVPDRFSGSGSGTDFTLKISRVEAEDVGVFYCGQALQTPLTFGQGTKVEIKR
As for B6, the binding result in test [1] is reported as “no binding (tested: about 67 nM)”. This molecule showed an EC50 in test [8] of 600 pM.

B7: Antibody B (antibody, human IgG1, kappa, L234A L235A, V domains shown)
VH: QVQLVQSGAEVKKPGASVKVSCKASGYTFTGNYMHWVRQAPGQGLEWMGWINPNSGGTNYAQKFQGRVTMTRDTSISTAYMELSRLRSDDTAVYYCVSGSGWYENYYYYGMDVWGQGTTVTVSS
VL: DIQMTQSPSSVSASVGDRVTITCRASQGISSWLAWYQQKPGKAPKLLIYAESSLQSGVPSRFSGSGSGTDFTLTISSLQPEDFATYYCQQANSFPLTFGGGTKVEIKR
B7: the IC50 in test [5] is 5600 pM; in test [6], 6000 pM. Besides, the midpoint of the response in test [7], the EC50, lay at 22300 pM. In addition, the binding result in test [4] was “no binding (tested: about 67 nM)”.

B8: Antibody D (antibody, human IgG1, kappa, L234A L235A, V domains shown)
VH: B3 VH with Y32F, A40P, V50T, Y59F, V87A, S100N, F105L
VL: B3 VL with I15V, K18R, V92N, S93T
Turning to B8, the figures for the IC50 in test [5] and in test [6] were 600 pM and 300 pM, respectively. The results for the EC50 in test [7] and in test [8] were 300 pM and 6600 pM, respectively. Moreover, in test [4], the binding result is “no binding (tested: about 67 nM)”.
